In patent US20240209109A1 (CONCEPT TO MEDICINE BIOTECH, published 2024):

Legend:
[1] = target: T1, human CD40 on cells (human, UniProt P25942 21-277); assay: FACS on Jurkat cells overexpressing human CD40, PE anti-human IgG, MFI
T1 construct: whole, on cells; also called cell surface CD40; Jurkat-CD40
Method: To evaluate their binding affinity to cell surface CD40, chimeric anti-CD40 monospecific antibodies were tested in Jurkat cell lines that overexpressed CD40 by FACS. A total number of 1×10⁵ Jurkat-CD40 cells in each well were incubated with 10-fold serially diluted antibodies starting from 100 nM for 30 minutes at 4° C. in FACS buffer. After wash by FACS buffer, PE conjugated-anti-human IgG antibody was added to each well and incubated at 4° C. for 30 minutes. After wash, MFI of PE was evaluated by MACSQuant Analyzer 16.

[2] = target: T1, human CD40 on cells; assay: FACS on human dendritic cells, MFI

T1 sequence (P25942 21-277): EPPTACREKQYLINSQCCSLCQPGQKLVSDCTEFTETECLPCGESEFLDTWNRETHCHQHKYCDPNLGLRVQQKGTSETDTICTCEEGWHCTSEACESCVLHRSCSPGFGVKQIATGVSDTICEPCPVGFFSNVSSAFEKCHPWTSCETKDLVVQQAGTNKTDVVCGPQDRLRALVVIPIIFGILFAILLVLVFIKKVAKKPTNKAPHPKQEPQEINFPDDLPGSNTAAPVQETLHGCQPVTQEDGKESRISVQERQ

Row | Binder | EC50 (read off the curve) [1] | EC50 (read off the curve) [2]
1 | 2p1294 chimeric monospecific antibody (antibody, V domains shown, chimeric monospecific antibody made from the alpaca VHH) VH: QVQLVESGGGLVQPGGSLRLSCAASGFSFRRYTMSWVRQAPGKGLEWVSAISDNGAITTYTESAQGRFTISRDNAKNTLYLQMNSLKPEDTAVYYCAQGGGSNYYRESWGQGTQVTVSS | ~0.2 nM | 
2 | 42p655 chimeric monospecific antibody (antibody, V domains shown, chimeric monospecific antibody made from the alpaca VHH) VH: AVQLVESGGGLVQPGGSLRLSCAASGFAFRRYTMSWVRQAPGKGLEWVSSITDNGSITTYAESAQGRFTISRDNAKNTLYLQMNSLKPEDTAVYHCAQGGGSNYYRESWGQGTQVTVSS | ~0.2 nM | 
3 | b16 (42p155z2)-LALA humanized anti-5T4/CD40 bispecific antibody (bispecific antibody, human IgG1, kappa, L234A L235A, 1+2 b16 format, humanized 5T4 arm; also called b16 (42p15522)-LALA) heavy 1: QVQLVQSGAEVKKPGASVKVSCKASGYAFSSSWMNWVRQAPGQGLEWMGRIYREDGHTNYNGKFKGRVTMTADKSITTAYMELSRLRSDDTAVYYCANGGAMDYWGQGTLVTVSSASTKGPSVFPLAPSSKSTSGGTAALGCLVKDYFPEPVTVSWNSGALTSGVHTFPAVLQSSGLYSLSSVVTVPSSSLGTQTYICNVNHKPSNTKVDKKVEPKSCDKTHTCPPCPAPEAAGGPSVFLFPPKPKDTLMISRTPEVTCVVVDVSHEDPEVKFNWYVDGVEVHNAKTKPREEQYNSTYRVVSVLTVLHQDWLNGKEYKCKVSNKALPAPIEKTISKAKGQPREPQVCTLPPSREEMTKNQVSLSCAVKGFYPSDIAVEWESNGQPENNYKTTPPVLDSDGSFFLVSKLTVDKSRWQQGNVFSCSVMHEALHNHYTQKSLSLSPGK light: not shown heavy 2: not shown |  | ~0.6 nM
